Series [1] concerns the molecule itself. Kind of series: native MS; 2.5 µM protein in 150 mM ammonium acetate pH 7.5; static nano-electrospray, LCT time-of-flight.
Series [2] concerns the molecule itself. Kind of series: AUC; sedimentation velocity, c(s) distribution; low concentration (9 µM contactin 1^Ig1–6, 5 µM contactin 1^fe), 12 mm centerpieces; 25 mM HEPES pH 7.5, 150 mM NaCl, 20 °C; abundances relative to normalized monomer abundance.
Series [3] deals with the molecule itself. Description: AUC; sedimentation velocity, c(s) distribution; higher concentration (36 µM contactin 1^Ig1–6, 22 µM contactin 1^fe), 3 mm centerpieces; 25 mM HEPES pH 7.5, 150 mM NaCl, 20 °C; abundances relative to normalized monomer abundance.
Series [4] can be described thus: K562 cell clustering, co-clustering ratio. To be noted: glycan changed form; control: untreated contactin 1 and neurofascin 155 K562 cells.

B1: contactin 1^fe (full ectodomain, residues 21–996), complex glycans (domain or fragment, mouse, UniProt P12960 21-996, looked up)
chain: DFTWHRRYGHGVSEEDKGFGPIFEEQPINTIYPEESLEGKVSLNCRARASPFPVYKWRMNNGDVDLTNDRYSMVGGNLVINNPDKQKDAGVYYCLASNNYGMVRSTEATLSFGYLDPFPPEERPEVKVKEGKGMVLLCDPPYHFPDDLSYRWLLNEFPVFITMDKRRFVSQTNGNLYIANVESSDRGNYSCFVSSPSITKSVFSKFIPLIPIPERTTKPYPADIVVQFKDIYTMMGQNVTLECFALGNPVPDIRWRKVLEPMPSTAEISTSGAVLKIFNIQLEDEGLYECEAENIRGKDKHQARIYVQAFPEWVEHINDTEVDIGSDLYWPCIATGKPIPTIRWLKNGYSYHKGELRLYDVTFENAGMYQCIAENAYGSIYANAELKILALAPTFEMNPMKKKILAAKGGRVIIECKPKAAPKPKFSWSKGTEWLVNSSRILIWEDGSLEINNITRNDGGIYTCFAENNRGKANSTGTLVITNPTRIILAPINADITVGENATMQCAASFDPALDLTFVWSFNGYVIDFNKEITHIHYQRNFMLDANGELLIRNAQLKHAGRYTCTAQTIVDNSSASADLVVRGPPGPPGGLRIEDIRATSVALTWSRGSDNHSPISKYTIQTKTILSDDWKDAKTDPPIIEGNMESAKAVDLIPWMEYEFRVVATNTLGTGEPSIPSNRIKTDGAAPNVAPSDVGGGGGTNRELTITWAPLSREYHYGNNFGYIVAFKPFDGEEWKKVTVTNPDTGRYVHKDETMTPSTAFQVKVKAFNNKGDGPYSLVAVINSAQDAPSEAPTEVGVKVLSSSEISVHWKHVLEKIVESYQIRYWAGHDKEAAAHRVQVTSQEYSARLENLLPDTQYFIEVGACNSAGCGPSSDVIETFTRKAPPSQPPRIISSVRSGSRYIITWDHVVALSNESTVTGYKILYRPDGQHDGKLFSTHKHSIEVPIPRDGEYVVEVRAHSDGGDGVVSQVKISG
modifications: N-linked complex glycans
notes: contactin 1, mouse, full ectodomain, residues 21–996; template Image Clone 30099512; Same chain as m7, other host and glycan type; also called contactin 1^fe CG; source: HEK293-E (EBNA1-expressing HEK293), secreted, purified (Ni Sepharose excel, SEC)
What is called stoichiometry N is the number of molecules, sites or subunits per partner or assembly. In the case of B1, the “stoichiometry N” value in series [1] amounted to 2. Also, in series [2], the “Dimer abundance (%)” value worked out at 9.9%, the “Trace amounts higher order species” value was determined as 4.6% and the “Trimer abundance (%)” value was 3.4%. In series [3], the “Dimer abundance (%)” value was determined as 9.8% and the “Trimer abundance (%)” value came out at 4%.

B2: contactin 1^fe (full ectodomain, residues 21–996), high mannose glycans (domain or fragment, mouse, UniProt P12960 21-996, looked up)
chain: DFTWHRRYGHGVSEEDKGFGPIFEEQPINTIYPEESLEGKVSLNCRARASPFPVYKWRMNNGDVDLTNDRYSMVGGNLVINNPDKQKDAGVYYCLASNNYGMVRSTEATLSFGYLDPFPPEERPEVKVKEGKGMVLLCDPPYHFPDDLSYRWLLNEFPVFITMDKRRFVSQTNGNLYIANVESSDRGNYSCFVSSPSITKSVFSKFIPLIPIPERTTKPYPADIVVQFKDIYTMMGQNVTLECFALGNPVPDIRWRKVLEPMPSTAEISTSGAVLKIFNIQLEDEGLYECEAENIRGKDKHQARIYVQAFPEWVEHINDTEVDIGSDLYWPCIATGKPIPTIRWLKNGYSYHKGELRLYDVTFENAGMYQCIAENAYGSIYANAELKILALAPTFEMNPMKKKILAAKGGRVIIECKPKAAPKPKFSWSKGTEWLVNSSRILIWEDGSLEINNITRNDGGIYTCFAENNRGKANSTGTLVITNPTRIILAPINADITVGENATMQCAASFDPALDLTFVWSFNGYVIDFNKEITHIHYQRNFMLDANGELLIRNAQLKHAGRYTCTAQTIVDNSSASADLVVRGPPGPPGGLRIEDIRATSVALTWSRGSDNHSPISKYTIQTKTILSDDWKDAKTDPPIIEGNMESAKAVDLIPWMEYEFRVVATNTLGTGEPSIPSNRIKTDGAAPNVAPSDVGGGGGTNRELTITWAPLSREYHYGNNFGYIVAFKPFDGEEWKKVTVTNPDTGRYVHKDETMTPSTAFQVKVKAFNNKGDGPYSLVAVINSAQDAPSEAPTEVGVKVLSSSEISVHWKHVLEKIVESYQIRYWAGHDKEAAAHRVQVTSQEYSARLENLLPDTQYFIEVGACNSAGCGPSSDVIETFTRKAPPSQPPRIISSVRSGSRYIITWDHVVALSNESTVTGYKILYRPDGQHDGKLFSTHKHSIEVPIPRDGEYVVEVRAHSDGGDGVVSQVKISG
modifications: N-linked high mannose glycans
notes: contactin 1, mouse, full ectodomain, residues 21–996; template Image Clone 30099512; Vector pUPE107.03 supplies a cystatin secretion signal peptide; also called contactin 1^fe HM; source: HEK293-ES (GnTI−, EBNA1-expressing HEK293), secreted, purified (Ni Sepharose excel, SEC)
Take B2: the “stoichiometry N” value in series [1] was 2. Moreover, in series [2], the “Dimer abundance (%)” value is 11.7% and the “Trimer abundance (%)” value stood at 1.8%. Also, in series [3], the “Dimer abundance (%)” value came to 2.9% and the “Trimer abundance (%)” value was found to be 0.3%.

B3: contactin 1^fe Leu279Arg, high mannose glycans (domain or fragment, mouse, UniProt P12960 21-996, looked up)
chain: DFTWHRRYGHGVSEEDKGFGPIFEEQPINTIYPEESLEGKVSLNCRARASPFPVYKWRMNNGDVDLTNDRYSMVGGNLVINNPDKQKDAGVYYCLASNNYGMVRSTEATLSFGYLDPFPPEERPEVKVKEGKGMVLLCDPPYHFPDDLSYRWLLNEFPVFITMDKRRFVSQTNGNLYIANVESSDRGNYSCFVSSPSITKSVFSKFIPLIPIPERTTKPYPADIVVQFKDIYTMMGQNVTLECFALGNPVPDIRWRKVREPMPSTAEISTSGAVLKIFNIQLEDEGLYECEAENIRGKDKHQARIYVQAFPEWVEHINDTEVDIGSDLYWPCIATGKPIPTIRWLKNGYSYHKGELRLYDVTFENAGMYQCIAENAYGSIYANAELKILALAPTFEMNPMKKKILAAKGGRVIIECKPKAAPKPKFSWSKGTEWLVNSSRILIWEDGSLEINNITRNDGGIYTCFAENNRGKANSTGTLVITNPTRIILAPINADITVGENATMQCAASFDPALDLTFVWSFNGYVIDFNKEITHIHYQRNFMLDANGELLIRNAQLKHAGRYTCTAQTIVDNSSASADLVVRGPPGPPGGLRIEDIRATSVALTWSRGSDNHSPISKYTIQTKTILSDDWKDAKTDPPIIEGNMESAKAVDLIPWMEYEFRVVATNTLGTGEPSIPSNRIKTDGAAPNVAPSDVGGGGGTNRELTITWAPLSREYHYGNNFGYIVAFKPFDGEEWKKVTVTNPDTGRYVHKDETMTPSTAFQVKVKAFNNKGDGPYSLVAVINSAQDAPSEAPTEVGVKVLSSSEISVHWKHVLEKIVESYQIRYWAGHDKEAAAHRVQVTSQEYSARLENLLPDTQYFIEVGACNSAGCGPSSDVIETFTRKAPPSQPPRIISSVRSGSRYIITWDHVVALSNESTVTGYKILYRPDGQHDGKLFSTHKHSIEVPIPRDGEYVVEVRAHSDGGDGVVSQVKISG
modifications: N-linked high mannose glycans
notes: contactin 1, mouse, full ectodomain, residues 21–996, Leu279Arg; template Image Clone 30099512; also called Leu279Arg contactin 1^fe; Contactin 1^fe Leu279Arg HM
For the protein B3, in series [1], the “stoichiometry N” value is not above 6. Also, in series [2], the “Dimer abundance (%)” value came out at 7.3%, the “Trace amounts higher order species” value was determined as 1.4% and the “Trimer abundance (%)” value came out at 8.7%. Moreover, in series [3], the “Dimer abundance (%)” value is 5.7% and the “Trimer abundance (%)” value is 6.7%.

B4: contactin 1^Ig1–6 (residues 21–604), high mannose glycans (domain or fragment, mouse, UniProt P12960 21-604, looked up)
chain: DFTWHRRYGHGVSEEDKGFGPIFEEQPINTIYPEESLEGKVSLNCRARASPFPVYKWRMNNGDVDLTNDRYSMVGGNLVINNPDKQKDAGVYYCLASNNYGMVRSTEATLSFGYLDPFPPEERPEVKVKEGKGMVLLCDPPYHFPDDLSYRWLLNEFPVFITMDKRRFVSQTNGNLYIANVESSDRGNYSCFVSSPSITKSVFSKFIPLIPIPERTTKPYPADIVVQFKDIYTMMGQNVTLECFALGNPVPDIRWRKVLEPMPSTAEISTSGAVLKIFNIQLEDEGLYECEAENIRGKDKHQARIYVQAFPEWVEHINDTEVDIGSDLYWPCIATGKPIPTIRWLKNGYSYHKGELRLYDVTFENAGMYQCIAENAYGSIYANAELKILALAPTFEMNPMKKKILAAKGGRVIIECKPKAAPKPKFSWSKGTEWLVNSSRILIWEDGSLEINNITRNDGGIYTCFAENNRGKANSTGTLVITNPTRIILAPINADITVGENATMQCAASFDPALDLTFVWSFNGYVIDFNKEITHIHYQRNFMLDANGELLIRNAQLKHAGRYTCTAQTIVDNSSASADLVVRG
modifications: N-linked high mannose glycans (glycans at Asn208, Asn258 and Asn521 are named)
notes: contactin 1, mouse, domains Ig1 to Ig6, residues 21–604; template Image Clone 30099512; Vector pUPE107.03 supplies a cystatin secretion signal peptide; also called CNTN1^Ig1–6; contactin 1^Ig1–6 HM; source: HEK293-ES (GnTI−, EBNA1-expressing HEK293), secreted, purified (Ni Sepharose excel, SEC)
Regarding B4, in series [2], the “Dimer abundance (%)” value came to 2.4%, the “Trace amounts higher order species” value was found to be 0.6% and the “Trimer abundance (%)” value was 0.8%. In addition, the “Dimer abundance (%)” value in series [3] turned out to be 0.1%.

B5: contactin 1: kifunensine on contactin 1 cells (protein)
parent chain: MKMPLLVSHLLLISLTSCLGDFTWHRRYGHGVSEEDKGFGPIFEEQPINTIYPEESLEGKVSLNCRARASPFPVYKWRMNNGDVDLTNDRYSMVGGNLVINNPDKQKDAGVYYCLASNNYGMVRSTEATLSFGYLDPFPPEERPEVKVKEGKGMVLLCDPPYHFPDDLSYRWLLNEFPVFITMDKRRFVSQTNGNLYIANVESSDRGNYSCFVSSPSITKSVFSKFIPLIPIPERTTKPYPADIVVQFKDIYTMMGQNVTLECFALGNPVPDIRWRKVLEPMPSTAEISTSGAVLKIFNIQLEDEGLYECEAENIRGKDKHQARIYVQAFPEWVEHINDTEVDIGSDLYWPCIATGKPIPTIRWLKNGYSYHKGELRLYDVTFENAGMYQCIAENAYGSIYANAELKILALAPTFEMNPMKKKILAAKGGRVIIECKPKAAPKPKFSWSKGTEWLVNSSRILIWEDGSLEINNITRNDGGIYTCFAENNRGKANSTGTLVITNPTRIILAPINADITVGENATMQCAASFDPALDLTFVWSFNGYVIDFNKEITHIHYQRNFMLDANGELLIRNAQLKHAGRYTCTAQTIVDNSSASADLVVRGPPGPPGGLRIEDIRATSVALTWSRGSDNHSPISKYTIQTKTILSDDWKDAKTDPPIIEGNMESAKAVDLIPWMEYEFRVVATNTLGTGEPSIPSNRIKTDGAAPNVAPSDVGGGGGTNRELTITWAPLSREYHYGNNFGYIVAFKPFDGEEWKKVTVTNPDTGRYVHKDETMTPSTAFQVKVKAFNNKGDGPYSLVAVINSAQDAPSEAPTEVGVKVLSSSEISVHWKHVLEKIVESYQIRYWAGHDKEAAAHRVQVTSQEYSARLENLLPDTQYFIEVGACNSAGCGPSSDVIETFTRKAPPSQPPRIISSVRSGSRYIITWDHVVALSNESTVTGYKILYRPDGQHDGKLFSTHKHSIEVPIPRDGEYVVEVRAHSDGGDGVVSQVKISGVSTLSSSLLSLLLPSLGFLVYSEF
With B5, the “other: heterophilic cell co-clustering” value in series [4] is given as “increases”.

Source of the values: paper PMC9633819 (Nature Communications, 2022).
